Consider one substance from patent publication US20070259402.

For data set [1], the target named is precursor (proFIX) of FIX alone produced in the presence of PACE-SOL (BeneFIX®) (UniProt P00740).
For data set [2], the system named is proFIX-Fc (FIX-Fc retaining the FIX propeptide; dimer or monomer form not given).

Sequence of precursor (proFIX) of FIX alone produced in the presence of PACE-SOL (BeneFIX®) (P00740 whole entry, looked up): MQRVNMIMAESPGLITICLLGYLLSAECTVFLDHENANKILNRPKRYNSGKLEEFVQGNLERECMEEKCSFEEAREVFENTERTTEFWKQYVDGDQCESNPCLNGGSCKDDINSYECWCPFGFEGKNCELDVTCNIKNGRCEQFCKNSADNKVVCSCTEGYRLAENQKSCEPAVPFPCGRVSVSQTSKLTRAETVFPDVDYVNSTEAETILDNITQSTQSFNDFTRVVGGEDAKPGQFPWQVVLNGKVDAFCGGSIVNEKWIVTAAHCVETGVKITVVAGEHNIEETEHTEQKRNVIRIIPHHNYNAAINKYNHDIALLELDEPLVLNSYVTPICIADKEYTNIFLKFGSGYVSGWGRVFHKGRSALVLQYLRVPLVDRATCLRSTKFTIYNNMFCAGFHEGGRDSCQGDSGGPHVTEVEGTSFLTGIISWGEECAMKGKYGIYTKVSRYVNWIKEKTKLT

Take “PACE-SOL (soluble form of human PACE, amino acids 1-715)”: the “peptide mapping (tryptic digest, LC/MS) for the propeptide indicator peptide (PIP)” value in data set [1] is “FIX alone produced in the presence of PACE-SOL (BeneFIX®) appeared identical to FIX-Fc monomer produced with PC5 (FIG. 13), displaying no detectable PIP”. For the same substance, the “Propeptide Processing (Western blotting), CHO, transient transfection” value in data set [2] was “processes”.
